Data published in WO2010007376A2 (dated 2010).
Each block holds one binder with its values, some of them ahead of it.

Columns and labels:
[1] = biological target: T1, recombinant human CD28/Fc Chimera (R&D Systems, Abingdon, UK) (human, UniProt P10747 19-152); experiment: BIAcore, CM5 chip coated with 12500 RU of CD28-Fc; dAb at 13.8 uM
T1 construct: Bought reagent; Fc part of the bought chimera not given

[2] = biological target: T1, recombinant human CD28/Fc Chimera (R&D …); experiment: BIAcore, CM5 chip coated with 12500 RU of CD28-Fc; dAb at 16.6 uM
[3] = biological target: T1, recombinant human CD28/Fc Chimera (R&D …); experiment: BIAcore, CM5 chip coated with 12500 RU of CD28-Fc; dAb concentration not given
[4] = biological target: T1, recombinant human CD28/Fc Chimera (R&D …); experiment: BIAcore, CM5 chip coated with 12500 RU of CD28-Fc; dAb at 57.5 uM
[5] = biological target: T1, recombinant human CD28/Fc Chimera (R&D …); experiment: BIAcore, CM5 chip coated with 12500 RU of CD28-Fc; dAb at 19.4 uM
[6] = biological target: T1, recombinant human CD28/Fc Chimera (R&D …); experiment: BIAcore, CM5 chip coated with 12500 RU of CD28-Fc; dAb at 42.3 uM

binding result [1]: binds
B1: DOM21-18 (other)
VL: DIQMTQSPSSLSASVGDRVTITCRASQYIGTSLNWYQQKPGKAPKLLTYQASLLQSGVPSRFSGSGSGTDFTLTISSLQPEDFATYYCQQLALRPMTFGQGTKVEIKR
notes: Human VK (DPK9/JK1) antibody single variable domain (dAb), expressed from pDOM5 and purified

binding result [2]: binds
B2: DOM21-28 (other)
VL: DIQMTQSPSSLSASVGDRVTITCRASQSISHSLVWYQQKPGKAPKLLIYWASLLQSGVPSRFSGSGSGTDFTLTISSLQPEDFATYYCQQGMTTPFTFGQGTKVEIKR
notes: Human VK antibody single variable domain (dAb), expressed from pDOM5 and purified

binding result [3]: binds
B3: DOM21-38 (other)
VH: EVQLLESGGGLVQPGGSLRLSCAASGFTFILYDMQWVRQAPGKGLEWVSRISANGHDTYYADSVKGRFTISRDNSKNTLYLQMNSLRAEDTAVYYCAKGPHYLFDYWGQGTLVTVSS
notes: Human VH antibody single variable domain (dAb), expressed from pDOM5 and purified

binding result [3]: binds
B4: DOM21-44 (other)
VH: EVQLLESGGGLVQPGGSLRLSCAASGFTFARYTMVWVRQAPGKGLEWVSAIHFDGRTTYYADSVKGRFTISRDNSKNTLYLQMNSLRAEDTAVYYCAKNEWASLKHFDYWGQGTLVTVSS
notes: as for B3

Continued, binder first:

B5: DOM21-20 (other)
VH: EVQLLESGGGLVQPGGSLRLSCAASGFTFPAYSMIWVRQAPGKGLEWVSTISPLGYSTYYADSVKGRFTISRDNSKNTLYLQMNSLRAEDTAVYYCAEQTAYLNRATEHFDYWGQGTLVTVSS
notes: as for B3
binding result [4]: binds

B6: DOM21-22 (other)
VH: EVQLLESGGGLVQPGGSLRLSCAASGFTFELYQMGWVRQAPGKGLEWVSTIMPSGNLTYYADSVKGRFTISRDNSKNTLYLQMNSLRAEDTAVYYCAKMWSLNLGFHAAFDYWGQGTLVTVSS
notes: as for B3
binding result [5]: binds

B7: DOM21-4 (other)
VH: EVQLLESGGGLVQPGGSLRLSCAASGFTFSRYHMAWVRQAPGKGLEWVSVIDSLGLQTYYADSVKGRFTISRDNSKNTLYLQMNSLRAEDTAVYYCAEYGGAFDYWGQGTLVTVSS
notes: Human VH antibody single variable domain (dAb) from a DP47/JH4b library, expressed from pDOM5 and purified
binding result [6]: binds
